± gives the standard deviation.

This data set in a line: collision cross section of modified peptide (TIMS, N2, iRT-aligned); higher = larger / more extended gas-phase ion. A digest of the protocol: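 Synthetic peptide pools (~100 fmol/µL in 2% acetonitrile/0.1% formic acid, iRT standard spiked 1:40) were separated on a 120-min nanoflow C18 gradient at 60 °C. They were analysed on a timsTOF Pro/HT (dda-PASEF, nitrogen, ~2.4 mbar) and identified with MaxQuant. 1/K0 was calibrated with three reference ions and aligned run-wise to the median iRT peptide deviation. Collision cross section came from the Mason-Schamp equation, averaging 1–3 technical replicates of the most abundant feature per charge state.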

Setting [1] is: charge state: 2, modification: Crotonyl.
[2] abbreviates: charge state: 3, modification: Crotonyl.
Where [3] appears, read: charge state: 2, modification: Butyryl.
Where [4] appears, read: charge state: 2, modification: Malonyl.
The mark [5] stands for this setting: charge state: 3, modification: HexNAc (ST).
The mark [6] stands for this setting: charge state: 2, modification: Acetyl (K).
Setting [7] is: charge state: 3, modification: Acetyl (K).
The mark [8] stands for this setting: charge state: 2, modification: Formyl.
Where [9] appears, read: charge state: 3, modification: Butyryl.
Setting [10] is: charge state: 2, modification: Methyl (K).
Setting [11] is: charge state: 3, modification: Methyl (K).
The mark [12] stands for this setting: charge state: 2, modification: Phospho (Y).
Where [13] appears, read: charge state: 2, modification: Citrullination (R).
Where [14] appears, read: charge state: 3, modification: Trimethyl (K).
Where [15] appears, read: charge state: 3, modification: Citrullination (R).
Setting [16] is: charge state: 2, modification: hydroxyisobutyryl.
Where [17] appears, read: charge state: 2, modification: Succinyl.
Setting [18] is: charge state: 3, modification: Succinyl.
Setting [19] is: charge state: 3, modification: Methyl (R).
Where [20] appears, read: charge state: 2, modification: Trimethyl (K).
Where [21] appears, read: charge state: 2, modification: Glutarylation.
[22] abbreviates: charge state: 3, modification: Glutarylation.
[23] abbreviates: charge state: 3, modification: hydroxyisobutyryl.

“LQEKVESAQSEQK [_LQEK(Crotonyl)VESAQSEQK_]” gave a collision cross section under setting [1] of 419.55 ± 0.85 Å² and a collision cross section under setting [2] of 502.91 ± 1.6 Å².

In turn, “TGGTQTDLFTCGKCK [_TGGTQTDLFTCGK(Butyryl)CK_]” had a collision cross section under setting [3] of 444.65 Å².

Sequence “IINEPTAAAIAYGLDKK [_IINEPTAAAIAYGLDK(Malonyl)K_]” yielded a collision cross section under setting [4] of 458.91 ± 0.99 Å².

Regarding “LSESHPDATEDLQR [_LS(HexNAc (ST))ESHPDATEDLQR_]”, under setting [5], the collision cross section is reported as 486.6 ± 0.17 Å².

Turning to “SPSDSGYSYETIGKTTK [_SPSDSGYSYETIGK(Acetyl (K))TTK_]”, the collision cross section under setting [6] is given as 448.1 ± 2.3 Å² and the collision cross section under setting [7] is on record as 524.63 ± 0.47 Å².

The sequence LLFSNTAAQKLR [_LLFSNTAAQK(Formyl)LR_] returned a collision cross section under setting [8] of 395.38 ± 0.55 Å².

Consider “DTPTSAGPNSFNKGK [_DTPTSAGPNSFNK(Butyryl)GK_]”, for which the collision cross section runs as follows: under setting [3], 412.93 ± 0.78 Å²; under setting [9], 464.51 ± 3.2 Å².

On to “GFALVGVGSEASSKK [_GFALVGVGSEASSK(Malonyl)K_]”, for which the collision cross section under setting [4] is 414.22 ± 0.58 Å².

Under setting [4], VGTASVLQPVKK [_VGTASVLQPVK(Malonyl)K_] had a collision cross section of 381.57 ± 0.0073 Å².

“VNVEAPDVNLEGLGGKLK [_VNVEAPDVNLEGLGGK(Methyl (K))LK_]”: the collision cross section runs as follows: under setting [10], 464.13 ± 2.6 Å²; under setting [11], 541.64 ± 0.51 Å².

Consider LGPNDQYK [_LGPNDQY(Phospho (Y))K_], for which the collision cross section under setting [12] stood at 336.82 ± 0.067 Å².

For the sequence VETTVTSLKTK [_VETTVTSLK(Propionyl)TK_], the collision cross section (charge state: 2, modification: Propionyl) is recorded as 382.91 ± 0.92 Å².

The sequence “RGATPPAPPR [_R(Citrullination (R))GATPPAPPR_]” had a collision cross section under setting [13] of 332.88 ± 2.4 Å².

Sequence LEQVEKELLR [_LEQVEK(Biotin)ELLR_] came in with a collision cross section (charge state: 2, modification: Biotin) of 410.78 Å².

“FGTINIVHPKLGSYTK [_FGTINIVHPK(Trimethyl (K))LGSYTK_]” showed a collision cross section under setting [14] of 502.05 ± 2.2 Å².

With “PRTPTAPAVNLAGAR [_PR(Citrullination (R))TPTAPAVNLAGAR_]”, the collision cross section is, setting by setting: under setting [13], 411.43 ± 0.98 Å²; under setting [15], 471.47 ± 0.76 Å².

Consider “ITASLCDLKSR [_ITASLCDLK(hydroxyisobutyryl)SR_]”, for which, under setting [16], the collision cross section came out at 395.08 ± 0.81 Å².

Under setting [5], “LGSASSSHGSIQESHK [_LGS(HexNAc (ST))ASSSHGSIQESHK_]” yielded a collision cross section of 519.96 ± 0.18 Å².

In turn, “VLDSGAPIKIPVGPETLGR [_VLDSGAPIK(Crotonyl)IPVGPETLGR_]” had a collision cross section under setting [1] of 470.51 ± 1.1 Å² and a collision cross section under setting [2] of 511.83 ± 1.6 Å².

Take “ASAISIKLGSSK [_ASAISIK(GlyGly (K))LGSSK_]”: the collision cross section (charge state: 2, modification: GlyGly (K)) worked out at 390.99 ± 1 Å².

Turning to DFDTALKHYDK [_DFDTALK(Methyl (K))HYDK_], the collision cross section is, setting by setting: under setting [10], 393.99 Å²; under setting [11], 458.02 ± 4 Å².

With “DASTLQSQKAEGTGDAK [_DASTLQSQK(Succinyl)AEGTGDAK_]”, the collision cross section reads like this: under setting [17], 437.2 ± 0.35 Å²; under setting [18], 509.05 ± 1.6 Å².

On to “SLGEPAAGEGSAKR [_SLGEPAAGEGSAK(Formyl)R_]”, for which the collision cross section under setting [8] turned out to be 375.91 ± 0.55 Å² and the collision cross section (charge state: 3, modification: Formyl) amounted to 481.8 Å².

On to “GFCFITYTDEEPVKK [_GFCFITYTDEEPVK(Butyryl)K_]”, for which the collision cross section under setting [3] turned out to be 458.8 ± 0.51 Å².

Consider “PANEKATDDYHYEK [_PANEK(Succinyl)ATDDYHYEK_]”, for which the collision cross section is, setting by setting: under setting [17], 446.9 ± 1.1 Å²; under setting [18], 500.9 ± 1.6 Å².

Turning to “YSSNLGNFNYEQRGAFR [_YSSNLGNFNYEQR(Methyl (R))GAFR_]”, the collision cross section under setting [19] was 534.33 ± 1.9 Å².

With “DLSTVEALQNLKNLK [_DLSTVEALQNLK(Acetyl (K))NLK_]”, the collision cross section is 475.96 ± 3.5 Å² under setting [6] and 544.02 Å² under setting [7].

The sequence “GGGYGGDRGGYGGDR [_GGGYGGDR(Methyl (R))GGYGGDR_]” gave a collision cross section under setting [19] of 455.76 ± 1.3 Å².

In turn, “GRGAPPPPPSR [_GR(Citrullination (R))GAPPPPPSR_]” came in with a collision cross section under setting [13] of 339.21 ± 1.2 Å².

For the sequence “ITGKNQVTATK [_ITGK(Trimethyl (K))NQVTATK_]”, the collision cross section amounted to 375.05 ± 1.7 Å² under setting [20] and 426.22 Å² under setting [14].

Turning to “VEPIHAVVLPRGK [_VEPIHAVVLPR(Methyl (R))GK_]”, the collision cross section reads like this: (charge state: 2, modification: Methyl (R)) 424.97 ± 1 Å²; under setting [19], 489.93 ± 2.2 Å².

Consider “GRGLPGPAESLR [_GR(Citrullination (R))GLPGPAESLR_]”, for which the collision cross section under setting [13] turned out to be 366.62 ± 0.53 Å².

Under setting [12], “GPPPSYGGSSR [_GPPPSY(Phospho (Y))GGSSR_]” displayed a collision cross section of 343.35 ± 0.65 Å².

Turning to “SLKLNTAEDAK [_SLK(Gluratylation)LNTAEDAK_]”, the collision cross section under setting [21] stood at 381.67 ± 0.53 Å².

Consider “VPTTEKPTVTVNFR [_VPTTEK(Gluratylation)PTVTVNFR_]”, for which the collision cross section stood at 428.25 ± 0.47 Å² under setting [21] and 516.1 ± 2.5 Å² under setting [22].

SEASSEFAKK [_SEASSEFAK(Formyl)K_] yielded a collision cross section under setting [8] of 345.37 ± 1.6 Å².

In the case of “PASGAGAGAGAGKR [_PASGAGAGAGAGK(Gluratylation)R_]”, the collision cross section runs as follows: under setting [21], 357.87 ± 1.2 Å²; under setting [22], 467.6 ± 2 Å².

Regarding “SPSDSGYSYETIGKTTK [_SPSDSGYSYETIGK(Propionyl)TTK_]”, the collision cross section (charge state: 3, modification: Propionyl) turned out to be 528.1 Å².

For the sequence “VLATQPGPGRGR [_VLATQPGPGR(Citrullination (R))GR_]”, the collision cross section runs as follows: under setting [13], 364.01 ± 0.27 Å²; under setting [15], 447.25 Å².

Consider “DESFLGKLGGTLAR [_DESFLGK(hydroxyisobutyryl)LGGTLAR_]”, for which the collision cross section is 419.07 ± 0.83 Å² under setting [16] and 498.29 ± 2.3 Å² under setting [23].

Take “DYSAPVNFISAGLKK [_DYSAPVNFISAGLK(Acetyl (K))K_]”: the collision cross section by setting is: under setting [6], 433.43 ± 2.4 Å²; under setting [7], 518.95 ± 1.1 Å².

ALLQAKASGK [_ALLQAK(Acetyl (K))ASGK_]: under setting [6], the collision cross section came out at 343.77 ± 0.2 Å².

As for “TFGKAAGPSLSHTSGGTQSK [_TFGK(Trimethyl (K))AAGPSLSHTSGGTQSK_]”, the collision cross section under setting [14] worked out at 559.57 ± 0.94 Å².

SDDESSQKDIK [_SDDESSQK(Malonyl)DIK_] returned a collision cross section under setting [4] of 372.43 ± 0.63 Å².

“VNVEAPDVNLEGLGGKLK [_VNVEAPDVNLEGLGGK(Trimethyl (K))LK_]”: the collision cross section reads like this: under setting [20], 469.62 ± 0.99 Å²; under setting [14], 545.57 ± 1.8 Å².

The sequence “AAQASDLEKIHLDEK [_AAQASDLEK(Biotin)IHLDEK_]” came in with a collision cross section (charge state: 3, modification: Biotin) of 515.52 Å².

Under setting [9], “DSINFLDHINGKK [_DSINFLDHINGK(Butyryl)K_]” showed a collision cross section of 471.81 Å².

Turning to “IVSGKDYNVTANSK [_IVSGK(hydroxyisobutyryl)DYNVTANSK_]”, the collision cross section is 417.55 ± 0.55 Å² under setting [16] and 466.6 ± 0.46 Å² under setting [23].

Turning to “VGIDTPDIDIHGPEGKLK [_VGIDTPDIDIHGPEGK(Acetyl (K))LK_]”, the collision cross section runs as follows: under setting [6], 490.05 Å²; under setting [7], 536.56 ± 1.2 Å².
